In article PMC5339894, “G196 epitope tag system: a novel monoclonal antibody, G196, recognizes the small, soluble peptide DLVPR with high affinity” (Scientific Reports, 2017) one finds ratio to parent data, which are given here for 77 variants.

B1: mAb G196 [mouse] / biotin-SGSGSDLVPRG [modified: biotin on the N-terminus; biotin on the N-terminus] (parent complex)
chain 1: QVKLQESGAELVKPGASVKLSCKASGYTFTNYWMHWVKLRPGQGFEWIGEINPSNGGSNYNEKFKRKATLTVDKSSSTAYMQLSSLTSEDSAVFYCSIWDSYFDYWGQGTTLTVSSAKTTPPSVYPLAPGSAAQTNSMVTLGCLVKGYFPEPVTVTWNSGSLSSGVHTFPAVLQSDLYTLSSSVTVPSSPWPSETVTCNVAHPASSTKVDKKIVPRDC
chain 2: NIVMTQSPKSMSMSVGERVTLTCKASENVVTYVSWYQQKPEQSPKLLIYGASNRYTGVPDRFTGSGSATDFTLTISSVQAEDLADYHCGQGYSYPYTFGGGTKLEIKRADAAPTVSIFPPSSEQLTSGGASVVCFLNNFYPKDINVKWKIDGSERQNGVLNSWTDQDSKDSTYSMSSTLTLTKDEYERHNSYTCEATHKTSTSPIVKSFNRNEC
chain 3: SGSGSDLVPRG

Variants of B1 are the subject of the test. In words: permutation ELISA (densitometry of spots); parent: 1; read off a plot. In general terms: An ELISA detects its analyte on a solid surface through an enzyme-linked reagent.
Turning to chain 3 R10H, the ratio to parent was roughly 0.38.

For chain 3 P9G, the ratio to parent was roughly 0.67. Regarding chain 3 P9I, the ratio to parent was roughly 0.85. Under chain 3 P9F stands roughly 0.86.

Turning to chain 3 P9H, the ratio to parent is roughly 0.74. For the variant chain 3 P9T, the ratio to parent was roughly 0.59. Under chain 3 P9A stands roughly 0.98; under chain 3 P9N, roughly 0.76. As for chain 3 P9C, the ratio to parent was roughly 0.78. With chain 3 P9E, the ratio to parent is roughly 0.86. In the case of chain 3 P9K, the ratio to parent was roughly 0.4. Take chain 3 P9M: the ratio to parent was roughly 0.82. Under chain 3 P9Q stands roughly 0.72; under chain 3 P9D, roughly 0.78; under chain 3 P9L, roughly 0.72. Turning to chain 3 P9W, the ratio to parent was roughly 0.82. With chain 3 P9V the figure was roughly 0.87; with chain 3 P9R, roughly 0.74. Under chain 3 P9S stands roughly 0.81; under chain 3 P9Y, roughly 0.89. As for chain 3 V8M, the ratio to parent is roughly 0.09. Under chain 3 V8L stands roughly 0.13.

For the variant chain 3 V8N, the ratio to parent was roughly 0.11. Take chain 3 V8W: the ratio to parent is roughly 0.03. With chain 3 V8I the figure was roughly 0.96; with chain 3 V8K, roughly 0.05. Under chain 3 V8R stands roughly 0.07. With chain 3 V8G the figure was roughly 0.03.

For the variant chain 3 V8Y, the ratio to parent is roughly 0.05. Under chain 3 V8H stands roughly 0.08; under chain 3 V8C, roughly 0.08; under chain 3 V8Q, roughly 0.16. With chain 3 V8A the figure was roughly 0.82; with chain 3 V8D, roughly 0.03. With chain 3 V8F the figure was roughly 0.04; with chain 3 V8S, roughly 0.44; with chain 3 V8T, roughly 0.95.

As for chain 3 V8P, the ratio to parent is roughly 0.04. For chain 3 V8E, the ratio to parent is roughly 0.07. On to chain 3 D6Y, for which the ratio to parent was roughly 0.11. Under chain 3 D6Q stands roughly 0.48. Under chain 3 D6M stands roughly 0.11; under chain 3 D6G, roughly 0.7; under chain 3 D6V, roughly 0.04. With chain 3 D6W the figure was roughly 0.12; with chain 3 D6L, roughly 0.06; with chain 3 D6S, roughly 0.95. For chain 3 D6A, the ratio to parent was roughly 0.38.

On to chain 3 D6T, for which the ratio to parent was roughly 0.19.

Turning to chain 3 D6F, the ratio to parent was roughly 0.09. With chain 3 D6R the figure was roughly 0.07. Under chain 3 D6E stands roughly 1; under chain 3 D6H, roughly 0.15; under chain 3 D6I, roughly 0.08. On to chain 3 D6K, for which the ratio to parent is roughly 0.05. chain 3 D6C: the ratio to parent is roughly 0.26. With chain 3 D6P the figure was roughly 0.16. Take chain 3 D6N: the ratio to parent was roughly 0.25. Under chain 3 L7V stands roughly 0.11; under chain 3 L7H, roughly 0.62. chain 3 L7M: the ratio to parent was roughly 0.84. Under chain 3 L7Y stands roughly 0.15; under chain 3 L7A, roughly 0.08; under chain 3 L7P, roughly 0.02. On to chain 3 L7C, for which the ratio to parent is roughly 0.06.

As for chain 3 L7I, the ratio to parent is roughly 0.99. Under chain 3 L7W stands roughly 0.05. In the case of chain 3 L7F, the ratio to parent is roughly 0.72. With chain 3 L7Q the figure was roughly 0.07; with chain 3 L7D, roughly 0.11. With chain 3 L7G the figure was roughly 0.04; with chain 3 L7E, roughly 0.08. As to chain 3 L7K, the ratio to parent is roughly 0.1.

Regarding chain 3 L7N, the ratio to parent was roughly 0.6. For the variant chain 3 L7R, the ratio to parent is roughly 0.13. With chain 3 L7S the figure was roughly 0.06; with chain 3 L7T, roughly 0.11.
